In experiment [1] the target is His-tagged Fc-fused human IL12Rβ2 (human) (UniProt Q99665). Put plainly: SPR. A general note: In SPR one partner is held on a chip, and binding of the other changes the refractive index at the surface.
In experiment [2] the target is T1, His-tagged Fc-fused human IL12Rβ2 (human, UniProt Q99665 24-622).
T1 sequence (looked up): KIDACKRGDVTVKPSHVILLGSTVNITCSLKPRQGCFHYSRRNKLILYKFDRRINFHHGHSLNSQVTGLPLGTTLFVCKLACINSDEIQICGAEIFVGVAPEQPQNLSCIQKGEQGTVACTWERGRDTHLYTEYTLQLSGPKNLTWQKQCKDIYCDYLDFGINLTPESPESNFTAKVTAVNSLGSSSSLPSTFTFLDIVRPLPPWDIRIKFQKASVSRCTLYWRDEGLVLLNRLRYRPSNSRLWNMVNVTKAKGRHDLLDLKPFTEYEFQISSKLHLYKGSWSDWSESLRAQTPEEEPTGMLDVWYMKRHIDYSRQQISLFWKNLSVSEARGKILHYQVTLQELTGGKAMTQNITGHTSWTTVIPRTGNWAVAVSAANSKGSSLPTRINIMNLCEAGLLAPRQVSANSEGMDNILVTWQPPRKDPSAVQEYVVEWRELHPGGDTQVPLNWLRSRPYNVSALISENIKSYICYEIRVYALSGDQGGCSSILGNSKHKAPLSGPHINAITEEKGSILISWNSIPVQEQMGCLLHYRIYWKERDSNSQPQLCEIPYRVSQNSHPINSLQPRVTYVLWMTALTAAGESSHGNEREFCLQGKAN
Briefly: SPR.

Consider “proteolytically cleaved XTX301 (active IL12 released from XTX301) (ligand)”, for which the Kd (usually the free concentration of one partner at which half of the binding sites on the other are occupied at equilibrium, for simple one-to-one binding) in experiment [1] was 7.97 nM.

B1: wild-type recombinant human IL12 (complex)
chain 1: RNLPVATPDPGMFPCLHHSQNLLRAVSNMLQKARQTLEFYPCTSEEIDHEDITKDKTSTVEACLPLELTKNESCLNSRETSFITNGSCLASRKTSFMMALCLSSIYEDLKMYQVEFKTMNAKLLMDPKRQIFLDQNMLAVIDELMQALNFNSETVPQKSSLEEPDFYKTKIKLCILLHAFRIRAVTIDRVMSYLNAS
chain 2: IWELKKDVYVVELDWYPDAPGEMVVLTCDTPEEDGITWTLDQSSEVLGSGKTLTIQVKEFGDAGQYTCHKGGEVLSHSLLLLHKKEDGIWSTDILKDQKEPKNKTFLRCEAKNYSGRFTCWWLTTISTDLTFSVKSSRGSSDPQGVTCGAATLSAERVRGDNKEYEYSVECQEDSACPAAEESLPIEVMVDAVHKLKYENYTSSFFIRDIIKPDPPKNLQLKPLKNSRQVEVSWEYPDTWSTPHSYFSLTFCVQVQGKSKREKKDRVFTDKTSATVICRKNASISVRAQDRYYSSSWSEWASVPCS
Regarding B1, the Kd in experiment [2] came to 0.93 nM.

The values above are taken from PMC10993987 (Molecular Cancer Therapeutics, 2023).
